Assay results as given in article PMC3686486.
pKd: −log10 of the molar value.

Assays:
[1] = target: Bacillus thuringiensis subsp. israelensis Cry11Aa toxin (Bacillus thuringiensis subsp. israelensis) (UniProt P21256); experiment: ELISA
[2] = target: Bacillus thuringiensis subsp. israelensis Cry4Ba toxin (Bacillus thuringiensis subsp. israelensis); experiment: ELISA
[3] = target: Bacillus thuringiensis subsp. israelensis Cry11Aa toxin (Bacillus thuringiensis subsp. israelensis) (UniProt P21256); experiment: SPR
[4] = target: Bacillus thuringiensis subsp. israelensis Cry4Ba toxin (Bacillus thuringiensis subsp. israelensis); experiment: SPR

Chain of Bacillus thuringiensis subsp. israelensis Cry4Ba toxin (Bacillus thuringiensis subsp. israelensis) (P05519 whole entry): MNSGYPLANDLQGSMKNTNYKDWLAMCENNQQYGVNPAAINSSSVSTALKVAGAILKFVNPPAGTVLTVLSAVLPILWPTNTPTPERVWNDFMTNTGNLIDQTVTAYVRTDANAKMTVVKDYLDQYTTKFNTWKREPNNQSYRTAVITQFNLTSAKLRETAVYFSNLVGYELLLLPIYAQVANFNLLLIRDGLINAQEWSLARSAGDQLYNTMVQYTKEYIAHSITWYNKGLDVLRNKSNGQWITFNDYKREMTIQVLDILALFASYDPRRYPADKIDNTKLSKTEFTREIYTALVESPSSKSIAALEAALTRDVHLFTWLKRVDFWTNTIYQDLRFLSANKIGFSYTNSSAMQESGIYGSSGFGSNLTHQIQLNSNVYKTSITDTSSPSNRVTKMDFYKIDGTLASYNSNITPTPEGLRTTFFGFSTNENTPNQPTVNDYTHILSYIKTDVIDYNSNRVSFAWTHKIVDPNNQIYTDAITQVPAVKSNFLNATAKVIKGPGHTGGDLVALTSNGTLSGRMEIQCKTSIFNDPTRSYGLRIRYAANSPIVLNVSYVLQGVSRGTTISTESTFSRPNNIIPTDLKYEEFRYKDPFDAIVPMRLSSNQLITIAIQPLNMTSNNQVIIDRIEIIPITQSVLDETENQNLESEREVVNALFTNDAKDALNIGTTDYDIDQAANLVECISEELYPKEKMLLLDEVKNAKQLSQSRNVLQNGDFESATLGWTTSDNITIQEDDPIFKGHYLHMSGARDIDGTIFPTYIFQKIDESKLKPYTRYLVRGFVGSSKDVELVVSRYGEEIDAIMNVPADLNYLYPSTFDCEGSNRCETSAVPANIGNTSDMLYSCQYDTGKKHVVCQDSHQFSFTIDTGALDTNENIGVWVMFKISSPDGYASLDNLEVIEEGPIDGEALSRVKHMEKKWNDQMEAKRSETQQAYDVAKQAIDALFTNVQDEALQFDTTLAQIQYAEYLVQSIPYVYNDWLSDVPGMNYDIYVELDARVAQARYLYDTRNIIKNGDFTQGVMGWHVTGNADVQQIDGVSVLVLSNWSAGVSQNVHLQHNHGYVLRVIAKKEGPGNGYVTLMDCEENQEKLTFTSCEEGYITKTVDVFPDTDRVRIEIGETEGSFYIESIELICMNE

Question: Which results are given for “Aedes aegypti cadherin receptor fragment CR7–11 (cadherin repeats 7–11) (domain or fragment)”?
Answer: pKd [1]: 7.83; pKd [2]: 6.87; koff [3]: 0.00252 s⁻¹; pKd [4]: 6.81; koff [4]: 0.00203 s⁻¹
